Measurements: PMC10602602, “The apiosyltransferase celery UGT94AX1 catalyzes the biosynthesis of the flavone glycoside apiin” (Plant Physiology, 2023)
Numbering of substitutions follows the chain as printed. In names and notes the source's numbering stands.

B1: AgApiT (UGT94AX1) (Apium graveolens) (protein)
chain: MGSENAKTRILMFPYLAYGHISPFVELAKQLTKRNFHIYLCSTPINLASVKKRADEDDNIQLLEFHLPSSPELPPRYHCSTGLPAELNPVLLRVFENAGPVFVDILKDIKPDLVIYDFMPSWPAQVALSLNIQVVYFSIFPVPMCCLPLHDSKRAGEKFPYQNVVIPQSPNRFALMASRNLLNCFEKTCKFALVKGLREVEGKYIDLLSDLADKDIIAVGPLVHVSMEKEDDKTKSILKWLDSKEKSSVVFVCFGSESYLSAEETIEMANALETTKCNFIWAMKFPQEKKDSVQLPDGFVERVGELGMILDGWVPQTMILGHPSTGVFLSHCGWSSVNESMKFGVPIIGMPMRYDLALIAKLVVEIGVGMEIVKNNQGKFDREGIVNVLRKVLEDGSEVKAKATELSLKINEKGEEDLDKAAEELMQICRNKKEIQG
notes: full ORF, codon-optimized synthetic gene, pCold ProS2, E. coli BL21(DE3); His/ProS2 tag cut off with HRV3C protease; 49 kDa
B2: AgApiT (UGT94AX1) (Apium graveolens; L356Q) (protein)
chain: B1 chain with L356Q
notes: as for B1
B3: AgApiT (UGT94AX1) (Apium graveolens; I139V) (protein)
chain: B1 chain with I139V
notes: as for B1

These proteins were tested on O=c1ccn([C@@H]2O[C@H](COP(=O)(O)OP(=O)(O)O[C@H]3OC[C@](O)(CO)[C@H]3O)[C@@H](O)[C@H]2O)c(=O)[nH]1 (assay: reversed-phase HPLC glycosyltransferase assay, Michaelis-Menten nonlinear fit). Conditions: acceptor apigenin 7-O-glucoside, 200 mM Tris-HCl, 50 mM NaCl, pH 7.0, 23 °C.
Assay type: biochemical, Apium graveolens
Description: (§1) reversed-phase HPLC glycosyltransferase assay, Michaelis-Menten nonlinear fit on AgApiT (UGT94AX1)

Row | Protein | Km [µM] | kcat [s⁻¹] | kcat/Km [M⁻¹ s⁻¹]
1 | B1 | 8.6 ± 0.6 | 0.00065 ± 1e-05 | 76 ± 6
2 | B2 | 390 ± 60 | 0.00014 ± 1e-05 | 0.36 ± 0.08
3 | B3 | 17 ± 1 | 0.00047 ± 1e-05 | 28 ± 3

These proteins were tested on O=c1cc(-c2ccc(O)cc2)oc2cc(O[C@@H]3O[C@H](CO)[C@@H](O)[C@H](O)[C@H]3O)cc(O)c12 in the same assay as above. Conditions: donor UDP-Api, 200 mM Tris-HCl, 50 mM NaCl, pH 7.0, 23 °C.
Assay type: biochemical, Apium graveolens
Description: as §1

Row | Protein | Km [µM] | kcat [s⁻¹] | kcat/Km [M⁻¹ s⁻¹]
4 | B1 | 15 ± 3 | 0.00088 ± 5e-05 | 58 ± 15
5 | B2 | 52 ± 9 | 0.00021 ± 2e-05 | 2.1 ± 0.3
6 | B3 | 17 ± 1 | 0.00083 ± 7e-05 | 50 ± 18
